Molecular target: 6x-histidine-fused LOS4 (LOS4-His) (Arabidopsis) (UniProt Q93ZG7)
Assay: cell-based or functional assay

Chain of 6x-histidine-fused LOS4 (LOS4-His) (Arabidopsis) (Q93ZG7 other isoform, or with tags, fused parts or gaps limits assumed): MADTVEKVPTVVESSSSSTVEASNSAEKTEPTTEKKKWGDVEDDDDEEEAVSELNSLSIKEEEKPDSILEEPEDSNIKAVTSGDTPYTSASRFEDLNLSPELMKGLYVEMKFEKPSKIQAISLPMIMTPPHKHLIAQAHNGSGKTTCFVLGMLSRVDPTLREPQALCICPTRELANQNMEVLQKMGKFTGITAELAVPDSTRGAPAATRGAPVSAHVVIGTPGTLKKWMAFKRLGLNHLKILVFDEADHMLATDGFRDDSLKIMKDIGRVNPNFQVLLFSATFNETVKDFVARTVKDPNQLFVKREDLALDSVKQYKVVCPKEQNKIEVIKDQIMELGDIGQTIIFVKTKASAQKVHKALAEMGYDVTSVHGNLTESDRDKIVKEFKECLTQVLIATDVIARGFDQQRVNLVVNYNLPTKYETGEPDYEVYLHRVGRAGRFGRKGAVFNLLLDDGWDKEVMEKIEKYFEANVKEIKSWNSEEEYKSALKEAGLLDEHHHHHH

| Substance | fold decrease in LOS4-stimulating activity against MBP-Gle1C, absence of InsP6 [fold] | LOS4 ATPase activity with RNA (LOS4-His and MBP-Gle1C at a ratio of 1:2) [fold] |
| --- | --- | --- |
| MBP-Gle1C (ID) (from UniProt Q0WPZ7 244-611) | > 2 | – |
| MBP fusion protein of the carboxyl-terminal domain of Gle1 (MBP-Gle1C; amino acid residues 244-611) (from UniProt Q0WPZ7 244-611) | – | 3 |
